EC50, IC50 and Kd data for 2 molecules are collected here from patent publication US20240124586A1 (WUXI BIOLOGICS IRELAND, published 2024).

The target of assay [1] is T1, human PD-1 ECD mouse Fc fusion (W305-hPro1.ECD.mFc) (human, UniProt Q15116 25-170).
T1 construct: extracellular domain; In-house protein; also called hPD-1-ECD; human PD-1 coated on the plate
The assay is described as follows: dual binding ELISA, PD-1 ECD.mFc coated, detection with biotinylated CTLA-4 ECD.hFc; second antibody named, second value; PD-1 coated, biotinylated CTLA-4 detection. On the procedure:
In order to test whether the bispecific antibodies could bind to both hPD-1 and hCTLA-4, an ELISA assay was developed as below. A 96-well ELISA plate (Nunc MaxiSorp, ThermoFisher) was coated overnight at 4° C. with 0.5 μg/ml antigen-1 (hPD-1-ECD, W305-hPro1.ECD.mFc) in carbonate-bicarbonate buffer. After a 1 hour blocking step with 2% (w/v) bovine serum albumin (Pierce) dissolved in PBS, serial dilutions of the different PD-1×CTLA-4 bispecific antibodies in PBS containing 2% BSA PBS were incubated on the plates for 1 hour at room temperature. Following the incubation, plates were washed three times with 300 μL per well of PBS containing 0.5% (v/v) Tween 20. […] After washing the plates three times, Streptavidin-HRP (Lifetechnologies, #SNN1004) (1:20000 diluted) was added and incubated on the plates for 1 hour at room temperature. After washing six times with […] per well of PBS containing 0.5% (v/v) Tween 20, 100 μL tetramethylbenzidine (TMB) substrate was added for the detection per well. The reaction was stopped after approximately 5 minutes through the addition of […] per well of 2 M HCl. The absorbance of the wells was measured at 450 nm with a multiwall plate reader (SpectraMax® M5e).
For orientation: ELISA stands for enzyme-linked immunosorbent assay.

The target in assay [2] is T2, biotinylated human CTLA-4.ECD.hFc (W316-hPro1.ECD.hFc.Biotin) (human, UniProt P16410 36-161, biotin-labelled (site not stated)).
T2 construct: extracellular domain; In-house protein; also called hCTLA-4.ECD.hFc-Biotin; human CTLA-4 protein
The assay is described as follows: competitive FACS, biotinylated CTLA-4.ECD.hFc on human CD80 CHO-K1 cells (competitor: CD80). On the procedure: Competitive FACS was used to test whether the antibodies could block human or cynomolgus CTLA-4 binding to hCD80 on cell surface. […] Then the mixtures of antibody and CTLA-4 were added to the cells and incubated for 1 hour at 4° C. The cells were washed two times with 200 μl FACS washing buffer (DPBS containing 1% BSA). Streptavidin PE (BD Pharmingen-554061) 1 to 600 diluted in FACS buffer was added to the cells and incubated at 4° C. for 1 hour. Additional washing steps were performed two times with 200 μL FACS washing buffer followed by centrifugation at 1500 rpm for 4 minutes at 4° C. Finally, the cells were resuspended in 100 μL FACS washing buffer and fluorescence values were measured by flow cytometry and analyzed by FlowJo.

The target in the next assay is T3, FcγRIIa (R167) (UniProt P12318 36-218, limits assumed).
T3 sequence (looked up): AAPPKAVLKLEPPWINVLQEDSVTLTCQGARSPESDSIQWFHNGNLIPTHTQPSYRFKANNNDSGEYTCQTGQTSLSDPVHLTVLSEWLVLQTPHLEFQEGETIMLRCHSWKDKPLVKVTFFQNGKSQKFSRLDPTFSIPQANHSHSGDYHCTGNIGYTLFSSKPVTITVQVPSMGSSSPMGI
The assay is described as follows: SPR (Biacore), receptor captured on anti-his chip, steady state model. On the procedure: (§1) Antibody binding affinity to FcγRs was detected using Biacore T200 (or Biacore 8K). Each receptor was captured on an anti-his antibody immobilized CM5 sensor chip (GE). Antibodies at different concentrations were injected over the sensor chip at a flow rate of 30 uL/min for an association phase of 60 s, followed by 60 s dissociation. The chip was then regenerated by 10 mM glycine (pH 1.5) after each binding cycle.
(§2) The sensorgrams of blank surface and buffer channel were subtracted from the test sensorgrams. The experimental data was fitted by 1:1 model using Langmiur analysis (for FcγRI) or steady state model (for other receptors). A molecular weight of 150 KDa was used to calculate the molar concentration of antibodies.
A general note: SPR reads the build-up and loss of mass on a sensor chip optically.

The target in assay [3] is T4, human CD3 on CD3+ Jurkat cells (human, UniProt P07766 23-207; P09693 23-182; P04234 22-171).
T4 construct: whole, on cells; also called CD3 positive Jurkat cells
The assay is described as follows: affinity by flow cytometry on Jurkat cells (bound/free versus bound). On the procedure: (§3) Binding affinity to CD3 and CD19 was determined by flow cytometry using Jurkat and Ramos cells, respectively. The cells were transferred in to 96-well U-bottom plates (BD) at a density of 5×10⁴ cells/well. Antibodies to be tested were 1:2-fold serially diluted in 1% 1×PBS/1% BSA and incubated with cells at 4° C. for 1 hr. Then, the plates were centrifuged at 1500 rpm for 4 mins and the supernatant discarded. […] The cells were washed once and re-suspended in 100 μL 1×PBS/1% BSA. Fluorescence intensity was measured by flow cytometry (BD Canto II) and analyzed by FlowJo. Fluorescence intensity was converted to bound molecules/cell based on the quantitative beads (Quantum™ MESF Kits, Bangs Laboratories). KD was calculated by Graphpad Prism5.
(§4) The bound IgG/free IgG versus bound IgG was plotted in FIGS. 46A and 46B.
On the technique in general: Flow cytometry measures light scatter and fluorescence of single cells or particles in a stream.

The target in assay [4] is T5, human CD19 on CD19+ B cell lines (Ramos, Raji) (human, UniProt P15391 20-556).
T5 construct: whole, on cells; also called CD19+ Ramos cells; CD19+ Raji cells
T5 sequence (looked up): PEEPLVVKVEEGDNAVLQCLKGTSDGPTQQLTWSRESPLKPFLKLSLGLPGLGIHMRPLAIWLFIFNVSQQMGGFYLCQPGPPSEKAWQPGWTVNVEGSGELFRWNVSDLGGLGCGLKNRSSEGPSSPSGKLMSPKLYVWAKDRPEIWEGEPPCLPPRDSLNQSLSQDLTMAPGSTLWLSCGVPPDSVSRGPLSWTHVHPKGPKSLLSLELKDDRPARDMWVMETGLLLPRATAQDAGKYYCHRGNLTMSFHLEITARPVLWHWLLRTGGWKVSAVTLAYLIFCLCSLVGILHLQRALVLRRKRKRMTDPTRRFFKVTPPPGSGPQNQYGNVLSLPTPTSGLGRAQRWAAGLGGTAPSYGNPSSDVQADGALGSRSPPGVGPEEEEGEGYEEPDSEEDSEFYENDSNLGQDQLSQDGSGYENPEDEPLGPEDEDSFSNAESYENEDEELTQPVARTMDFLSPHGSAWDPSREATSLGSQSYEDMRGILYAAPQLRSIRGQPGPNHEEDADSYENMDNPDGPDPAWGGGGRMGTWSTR
The assay is described as follows: affinity by flow cytometry on Ramos cells (bound/free versus bound). On the procedure:
as §3, §4

A further assay deals with T6, FcγRI (UniProt P12314 16-288, limits assumed).
T6 construct: His-tagged by the capture method
Nature of the assay: SPR (Biacore), receptor captured on anti-his chip, 1:1 model. On the procedure:
as §1, §2

T2 sequence (P16410 36-161): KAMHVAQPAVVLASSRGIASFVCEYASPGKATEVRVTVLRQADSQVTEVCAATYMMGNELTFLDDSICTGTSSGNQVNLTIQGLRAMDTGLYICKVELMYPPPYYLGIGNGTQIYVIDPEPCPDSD
T4 sequence (P07766 23-207, chain 1 of 3): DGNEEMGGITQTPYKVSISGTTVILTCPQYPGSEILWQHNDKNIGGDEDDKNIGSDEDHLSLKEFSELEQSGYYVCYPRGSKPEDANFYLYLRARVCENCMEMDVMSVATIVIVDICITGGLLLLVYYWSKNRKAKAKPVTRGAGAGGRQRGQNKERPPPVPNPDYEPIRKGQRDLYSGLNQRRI
T4 sequence (P09693 23-182, chain 2 of 3): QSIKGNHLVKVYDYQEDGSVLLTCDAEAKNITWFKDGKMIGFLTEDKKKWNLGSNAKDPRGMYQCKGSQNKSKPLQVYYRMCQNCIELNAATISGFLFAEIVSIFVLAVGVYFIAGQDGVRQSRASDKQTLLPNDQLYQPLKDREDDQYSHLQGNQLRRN
T4 sequence (P04234 22-171, chain 3 of 3): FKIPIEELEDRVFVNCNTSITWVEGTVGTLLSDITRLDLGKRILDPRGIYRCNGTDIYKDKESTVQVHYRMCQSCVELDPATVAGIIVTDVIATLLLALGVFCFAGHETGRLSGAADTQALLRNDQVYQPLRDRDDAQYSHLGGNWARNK
T6 sequence (P12314 16-288 limits assumed): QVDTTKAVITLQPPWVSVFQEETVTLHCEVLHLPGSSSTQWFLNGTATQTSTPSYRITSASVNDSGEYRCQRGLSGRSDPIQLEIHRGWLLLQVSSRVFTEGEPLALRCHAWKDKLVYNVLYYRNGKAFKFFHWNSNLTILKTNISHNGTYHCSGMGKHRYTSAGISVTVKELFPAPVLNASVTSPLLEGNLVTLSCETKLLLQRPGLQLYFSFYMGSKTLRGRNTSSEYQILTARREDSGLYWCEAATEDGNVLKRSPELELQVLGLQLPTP
T1 sequence (Q15116 25-170): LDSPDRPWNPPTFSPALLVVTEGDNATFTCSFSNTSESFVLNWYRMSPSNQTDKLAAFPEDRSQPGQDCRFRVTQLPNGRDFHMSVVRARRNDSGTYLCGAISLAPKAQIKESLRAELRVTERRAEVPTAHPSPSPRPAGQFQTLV

B1: W3248-U6T5.G25-1.uIgG4.SP, bispecific anti-PD-1 x CTLA-4 (bispecific antibody)
heavy: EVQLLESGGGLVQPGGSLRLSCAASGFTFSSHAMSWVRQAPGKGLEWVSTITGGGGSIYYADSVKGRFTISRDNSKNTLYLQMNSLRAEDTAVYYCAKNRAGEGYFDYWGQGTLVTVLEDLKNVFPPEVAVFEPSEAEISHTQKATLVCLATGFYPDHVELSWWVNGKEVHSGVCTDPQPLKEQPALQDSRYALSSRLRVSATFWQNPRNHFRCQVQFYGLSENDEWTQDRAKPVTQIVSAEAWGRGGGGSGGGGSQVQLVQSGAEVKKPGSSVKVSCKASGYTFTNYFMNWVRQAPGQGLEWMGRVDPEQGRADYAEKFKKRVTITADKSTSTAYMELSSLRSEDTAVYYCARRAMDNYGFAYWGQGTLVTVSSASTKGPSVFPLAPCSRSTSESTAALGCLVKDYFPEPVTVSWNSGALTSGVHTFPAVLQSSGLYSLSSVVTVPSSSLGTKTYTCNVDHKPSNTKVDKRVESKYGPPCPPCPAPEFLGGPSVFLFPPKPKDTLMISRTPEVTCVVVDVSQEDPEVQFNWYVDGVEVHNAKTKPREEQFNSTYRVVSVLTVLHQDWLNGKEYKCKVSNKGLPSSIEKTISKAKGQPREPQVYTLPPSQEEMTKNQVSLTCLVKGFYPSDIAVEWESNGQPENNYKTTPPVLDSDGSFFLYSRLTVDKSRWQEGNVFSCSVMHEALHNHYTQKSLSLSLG
light 1: SYELTQPLSVSVALGQTARITCGGDNIGNKDVHWYQQKPGQAPVLVIYRDSNRPSGIPEGFSGSNSGNTATLTISRAQAGDEADYYCQVWDSIWVFGGGTKLTVLPDIQNPDPAVYQLRDSKSSDKSVCLFTDFDSQTQVSQSKDSDVYITDKCVLDMRSMDFKSNSAVAWSQKSDFACANAFQNSIIPEDTFFPSPESS
light 2: EIVLTQSPDFQSVTPKEKVTITCSANSALSYMYWYQQKPDQSPKLWVHGTSNLASGVPSRFSGSGSGTDFTLTINSLEAEDAATYYCHHWSNTQWTFGGGTKVEIKRTVAAPSVFIFPPSDEQLKSGTASVVCLLNNFYPREAKVQWKVDNALQSGNSQESVTEQDSKDSTYSLSSTLTLSKADYEKHKVYACEVTHQGLSSPVTKSFNRGEC
notes: IgG4 (S228P); also called WBP3248-U6T5.G25-1-uIgG4.SP; U6T5.G25.IgG4
Take B1: the EC50 in assay [1] worked out at 0.071 nM. Moreover, in assay [2], the IC50 came to 0.758 nM.

B2: W3438-T3U4.E17-1.uIgG4.SP, bispecific anti-CD3 x CD19 (bispecific antibody)
heavy 1: QVQLVQSGAEVKKPGSSVKVSCKASGFAFTDYYIHWVRQAPGQGLEWMGWISPGNVNTKYNENFKGRVTITADKSTSTAYMELSSLRSEDTAVYYCARDGYSLYYFDYWGQGTLVTVLEDLKNVFPPEVAVFEPSEAEISHTQKATLVCLATGFYPDHVELSWWVNGKEVHSGVCTDPQPLKEQPALQDSRYALSSRLRVSATFWQNPRNHFRCQVQFYGLSENDEWTQDRAKPVTQIVSAEAWGRYGPPCPPCPAPEFLGGPSVFLFPPKPKDTLMISRTPEVTCVVVDVSQEDPEVQFNWYVDGVEVHNAKTKPREEQFNSTYRVVSVLTVLHQDWLNGKEYKCKVSNKGLPSSIEKTISKAKGQPREPQVYTLPPCQEEMTKNQVSLWCLVKGFYPSDIAVEWESNGQPENNYKTTPPVLDSDGSFFLYSRLTVDKSRWQEGNVFSCSVMHEALHNHYTQKSLSLSLGK
light 1: DIVMTQSPDSLAVSLGERATINCKSSQSLLNSRTRKNYLAWYQQKPGQPPKLLIYWASTRQSGVPDRFSGSGSGTDFTLTISSLQAEDVAVYYCTQSHTLRTFGGGTKVEIKPDIQNPDPAVYQLRDSKSSDKSVCLFTDFDSQTQVSQSKDSDVYITDKCVLDMRSMDFKSNSAVAWSQKSDFACANAFQNSIIPEDTFFPSPESS
heavy 2: QMQLVQSGPEVKKPGTSVKVSCKASGYAFTSYNMYWVRQARGQRLEWIGYIDPYNGDTTYNQKFKGRVTITRDMSTSTAYMELSSLRSEDTAVYYCLTTAYAMDYWGQGTLVTVSSASTKGPSVFPLAPCSRSTSESTAALGCLVKDYFPEPVTVSWNSGALTSGVHTFPAVLQSSGLYSLSSVVTVPSSSLGTKTYTCNVDHKPSNTKVDKRVESKYGPPCPPCPAPEFLGGPSVFLFPPKPKDTLMISRTPEVTCVVVDVSQEDPEVQFNWYVDGVEVHNAKTKPREEQFNSTYRVVSVLTVLHQDWLNGKEYKCKVSNKGLPSSIEKTISKAKGQPREPQVCTLPPSQEEMTKNQVSLSCAVKGFYPSDIAVEWESNGQPENNYKTTPPVLDSDGSFFLVSRLTVDKSRWQEGNVFSCSVMHEALHNHYTQKSLSLSLGK
light 2: DIQLTQSPSFLSASVGDRVTITCSASSTVNYMHWYQQKPGKAPKLLIYSTSNLASGVPSRFSGSGSGTEFTLTISSLQPEDFATYYCHQWSSYPYTFGQGTKLEIKRTVAAPSVFIFPPSDEQLKSGTASVVCLLNNFYPREAKVQWKVDNALQSGNSQESVTEQDSKDSTYSLSSTLTLSKADYEKHKVYACEVTHQGLSSPVTKSFNRGEC
notes: also called E17-Design_2-QQQQ (IgG4); E17-IgG4; copies: 1 + 1 + 1 + 1
With B2, the dissociation constant (Kd) was found to be 15800 nM in the assay with FcγRIIa (R167), 9 nM in assay [3], 23 nM in assay [4] and 9.79 nM in the assay with FcγRI.

Usually EC50 stands for the concentration needed to bring the measured effect to its halfway point. High values mean a less potent agent, low ones a more potent agent. In general, IC50 refers to the point on the concentration scale where inhibition reaches its midpoint. For orientation: Kd means the free concentration of one partner at which half of the binding sites on the other are occupied at equilibrium, for simple one-to-one binding. High values mean lower affinity, low ones higher affinity.
